Drawing on patent US20200123228A1, this text covers Kd and % of antibody released by plasmin digestion after buffer changes for five substances.

In assay [1] the target is rmCTLA4 (mouse) (UniProt P09793). In words: ELISA. Background: In an ELISA, binding on a coated surface is turned into a signal by an enzyme label.
The target in assay [2] is Collagen I (human) (UniProt P02452). Put plainly: ELISA.
Assay [3] has as its target Fibronectin (human) (UniProt P02751). Put plainly: ELISA.
In assay [4] the target is rmCTLA4 (mouse) (UniProt P09793). In words: ELISA. The source holds these as a separate data set.
The target of assay [5] is bovine collagen (Symatese), polymerized gel (bovine). In words: retention on polymerized bovine collagen gel, antibody loaded at 10 µg/mL, released antibody measured by ELISA.
Assay [6] addresses rmCTLA4 (mouse) (UniProt P09793). Put plainly: ELISA. This is another data set of the same source.

Like-named read-outs stand apart in the source and are kept apart here. Bounds are passed on as bounds.

Sequence of rmCTLA4 (mouse) (P09793 36-162): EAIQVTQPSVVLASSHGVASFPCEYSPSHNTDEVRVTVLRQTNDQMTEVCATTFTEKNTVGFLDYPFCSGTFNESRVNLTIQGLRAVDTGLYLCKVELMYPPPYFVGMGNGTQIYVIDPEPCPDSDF
Sequence of Fibronectin (human) (P02751 32-2477): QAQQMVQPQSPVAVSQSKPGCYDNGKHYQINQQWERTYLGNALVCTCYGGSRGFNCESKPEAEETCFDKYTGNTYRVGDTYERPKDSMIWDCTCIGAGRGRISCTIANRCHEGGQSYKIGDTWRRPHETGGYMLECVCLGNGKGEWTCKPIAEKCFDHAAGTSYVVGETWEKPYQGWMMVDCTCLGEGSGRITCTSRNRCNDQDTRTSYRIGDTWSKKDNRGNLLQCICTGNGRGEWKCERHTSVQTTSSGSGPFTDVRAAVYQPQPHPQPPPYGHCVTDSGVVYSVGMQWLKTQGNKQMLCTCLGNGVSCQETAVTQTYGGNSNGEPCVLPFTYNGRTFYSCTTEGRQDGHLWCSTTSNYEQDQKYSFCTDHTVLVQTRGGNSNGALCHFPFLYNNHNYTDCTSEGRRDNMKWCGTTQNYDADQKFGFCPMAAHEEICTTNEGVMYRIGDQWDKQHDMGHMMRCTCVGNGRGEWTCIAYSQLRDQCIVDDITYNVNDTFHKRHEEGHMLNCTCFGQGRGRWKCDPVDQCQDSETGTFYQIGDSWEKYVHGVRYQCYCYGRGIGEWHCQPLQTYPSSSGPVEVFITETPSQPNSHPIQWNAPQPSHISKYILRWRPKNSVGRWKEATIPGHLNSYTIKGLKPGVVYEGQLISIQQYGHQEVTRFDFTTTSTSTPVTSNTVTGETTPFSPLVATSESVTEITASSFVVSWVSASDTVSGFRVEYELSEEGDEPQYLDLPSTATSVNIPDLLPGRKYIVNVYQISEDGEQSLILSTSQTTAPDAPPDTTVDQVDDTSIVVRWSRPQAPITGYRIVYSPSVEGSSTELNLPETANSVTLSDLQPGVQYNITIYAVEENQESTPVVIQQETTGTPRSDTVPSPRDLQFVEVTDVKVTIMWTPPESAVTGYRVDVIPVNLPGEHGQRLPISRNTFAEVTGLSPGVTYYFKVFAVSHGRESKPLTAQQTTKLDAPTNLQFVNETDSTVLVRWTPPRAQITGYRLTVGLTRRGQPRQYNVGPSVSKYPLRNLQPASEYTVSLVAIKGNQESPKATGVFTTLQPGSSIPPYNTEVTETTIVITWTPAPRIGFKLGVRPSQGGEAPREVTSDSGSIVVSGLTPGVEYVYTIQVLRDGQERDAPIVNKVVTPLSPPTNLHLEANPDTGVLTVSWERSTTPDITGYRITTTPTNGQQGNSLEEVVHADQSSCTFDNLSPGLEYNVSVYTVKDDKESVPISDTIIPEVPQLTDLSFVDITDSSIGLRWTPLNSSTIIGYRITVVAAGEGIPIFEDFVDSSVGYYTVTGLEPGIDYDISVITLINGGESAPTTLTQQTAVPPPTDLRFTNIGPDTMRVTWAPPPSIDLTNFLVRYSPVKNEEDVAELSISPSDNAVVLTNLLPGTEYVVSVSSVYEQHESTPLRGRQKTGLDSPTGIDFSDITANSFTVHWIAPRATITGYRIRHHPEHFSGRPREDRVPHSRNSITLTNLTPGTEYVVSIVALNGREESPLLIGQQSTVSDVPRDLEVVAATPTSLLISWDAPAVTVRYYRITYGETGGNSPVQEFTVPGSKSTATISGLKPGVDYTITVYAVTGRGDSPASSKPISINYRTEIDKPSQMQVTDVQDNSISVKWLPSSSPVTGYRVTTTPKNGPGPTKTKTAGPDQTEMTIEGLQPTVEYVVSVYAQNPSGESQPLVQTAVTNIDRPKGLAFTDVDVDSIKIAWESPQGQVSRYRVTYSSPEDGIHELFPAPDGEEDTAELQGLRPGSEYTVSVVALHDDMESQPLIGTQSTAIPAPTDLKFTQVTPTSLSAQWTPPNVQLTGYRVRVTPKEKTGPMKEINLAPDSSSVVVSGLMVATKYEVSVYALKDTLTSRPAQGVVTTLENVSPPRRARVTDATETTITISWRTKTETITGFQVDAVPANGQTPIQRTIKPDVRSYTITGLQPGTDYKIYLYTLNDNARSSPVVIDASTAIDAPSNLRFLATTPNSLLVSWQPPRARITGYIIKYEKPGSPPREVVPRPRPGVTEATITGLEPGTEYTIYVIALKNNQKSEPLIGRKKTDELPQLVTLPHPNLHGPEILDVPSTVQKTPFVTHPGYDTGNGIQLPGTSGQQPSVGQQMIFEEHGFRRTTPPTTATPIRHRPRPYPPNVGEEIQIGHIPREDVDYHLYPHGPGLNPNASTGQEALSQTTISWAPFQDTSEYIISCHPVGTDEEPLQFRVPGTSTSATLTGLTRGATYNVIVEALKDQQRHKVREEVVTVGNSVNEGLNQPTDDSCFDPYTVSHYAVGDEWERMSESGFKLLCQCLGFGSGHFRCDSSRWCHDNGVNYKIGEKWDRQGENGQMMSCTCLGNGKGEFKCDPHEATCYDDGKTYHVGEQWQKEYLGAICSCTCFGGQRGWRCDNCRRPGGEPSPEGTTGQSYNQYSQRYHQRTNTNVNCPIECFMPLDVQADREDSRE
Sequence of Collagen I (human) (P02452 162-1218, chain 1 of 2): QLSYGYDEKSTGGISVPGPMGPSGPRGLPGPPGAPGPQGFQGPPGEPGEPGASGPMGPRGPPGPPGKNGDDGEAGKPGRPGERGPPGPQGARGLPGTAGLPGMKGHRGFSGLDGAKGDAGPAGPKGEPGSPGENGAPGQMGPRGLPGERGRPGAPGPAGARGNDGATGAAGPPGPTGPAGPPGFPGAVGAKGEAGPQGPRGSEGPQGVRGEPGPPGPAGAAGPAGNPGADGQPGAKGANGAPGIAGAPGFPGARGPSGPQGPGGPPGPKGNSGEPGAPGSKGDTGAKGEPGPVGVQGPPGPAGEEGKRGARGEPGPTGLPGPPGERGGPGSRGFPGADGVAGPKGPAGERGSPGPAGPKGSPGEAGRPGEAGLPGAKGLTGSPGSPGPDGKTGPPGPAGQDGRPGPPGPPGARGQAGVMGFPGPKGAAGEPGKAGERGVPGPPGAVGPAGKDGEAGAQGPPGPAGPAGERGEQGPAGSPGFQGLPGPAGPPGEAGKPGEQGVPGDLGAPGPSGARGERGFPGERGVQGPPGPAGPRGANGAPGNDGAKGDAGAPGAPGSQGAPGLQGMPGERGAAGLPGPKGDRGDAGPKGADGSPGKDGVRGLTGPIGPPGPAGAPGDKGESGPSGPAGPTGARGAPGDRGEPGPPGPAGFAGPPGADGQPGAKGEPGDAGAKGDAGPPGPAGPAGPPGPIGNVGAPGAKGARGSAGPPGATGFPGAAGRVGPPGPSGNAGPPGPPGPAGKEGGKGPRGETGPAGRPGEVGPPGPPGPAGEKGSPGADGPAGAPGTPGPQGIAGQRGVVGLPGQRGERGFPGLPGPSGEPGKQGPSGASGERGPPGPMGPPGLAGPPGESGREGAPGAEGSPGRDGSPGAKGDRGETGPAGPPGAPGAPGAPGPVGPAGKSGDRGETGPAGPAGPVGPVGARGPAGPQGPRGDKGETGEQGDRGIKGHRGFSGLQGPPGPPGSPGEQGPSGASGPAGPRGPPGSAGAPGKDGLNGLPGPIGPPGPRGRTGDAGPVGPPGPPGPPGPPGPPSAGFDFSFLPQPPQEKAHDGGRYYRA
Sequence of Collagen I (human) (P08123 80-1119, chain 2 of 2, further chain): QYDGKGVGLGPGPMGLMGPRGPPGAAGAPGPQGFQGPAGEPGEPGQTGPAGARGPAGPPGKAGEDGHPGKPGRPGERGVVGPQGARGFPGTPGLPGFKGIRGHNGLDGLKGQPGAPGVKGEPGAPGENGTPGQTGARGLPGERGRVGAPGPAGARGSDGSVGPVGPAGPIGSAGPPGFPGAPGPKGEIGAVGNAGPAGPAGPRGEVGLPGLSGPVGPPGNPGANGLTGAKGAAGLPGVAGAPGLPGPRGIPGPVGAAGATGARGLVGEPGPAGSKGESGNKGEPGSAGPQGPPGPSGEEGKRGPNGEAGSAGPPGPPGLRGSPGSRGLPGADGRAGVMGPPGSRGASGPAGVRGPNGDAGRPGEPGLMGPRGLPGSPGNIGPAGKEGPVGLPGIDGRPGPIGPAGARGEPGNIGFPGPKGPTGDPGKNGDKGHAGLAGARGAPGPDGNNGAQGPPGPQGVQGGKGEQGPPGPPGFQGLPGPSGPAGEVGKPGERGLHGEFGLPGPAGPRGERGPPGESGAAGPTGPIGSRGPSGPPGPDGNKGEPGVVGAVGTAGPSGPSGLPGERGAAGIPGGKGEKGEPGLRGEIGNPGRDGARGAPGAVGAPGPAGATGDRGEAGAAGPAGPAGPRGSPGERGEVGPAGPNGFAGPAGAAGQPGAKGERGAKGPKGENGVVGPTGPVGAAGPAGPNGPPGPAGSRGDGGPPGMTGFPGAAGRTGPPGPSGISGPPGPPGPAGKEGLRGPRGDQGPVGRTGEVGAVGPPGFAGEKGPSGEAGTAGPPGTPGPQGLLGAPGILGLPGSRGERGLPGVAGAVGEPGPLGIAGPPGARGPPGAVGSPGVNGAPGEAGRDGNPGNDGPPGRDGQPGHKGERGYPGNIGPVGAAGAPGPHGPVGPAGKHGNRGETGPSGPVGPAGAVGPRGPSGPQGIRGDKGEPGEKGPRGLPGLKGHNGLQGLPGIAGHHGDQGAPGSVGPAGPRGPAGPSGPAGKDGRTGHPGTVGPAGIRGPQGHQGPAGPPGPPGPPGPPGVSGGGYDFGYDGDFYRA

What is called Kd is the equilibrium constant for the complex coming apart. For the substance 9H10, the Kd in assay [1] worked out at 15 nM.

With PlGF-2123-144-9H10, the Kd in assay [1] is 5.7 nM; in assay [2], 1.3 nM; in assay [3], 0.87 nM.

As to PlGF-2123-144-4F10, the Kd in assay [1] amounted to 0.16 nM; in assay [2], 26.7 nM; in assay [3], 4.7 nM; in assay [4], 0.157 nM.

On to “rat anti-mouse PD-L1 (clone 10F.9G2), wild-type (antibody)”, for which the % of antibody released by plasmin digestion after buffer changes in assay [5] was under 0.1%.

Turning to 4F10, the Kd in assay [1] worked out at 0.101 nM; in assay [6], 0.1 nM.
